Source: patent publication US20240343799A1 (Innovent, published 2024)
Positions count from the first letter of the chain named.

Legend:
[1] = target: T1, human CD79b-his (Sino biological) (human, UniProt P40259 29-159); test: SPR (Biacore T200), CD79b-His coupled to chip, antibody injected
T1 construct: Amine-coupled to the Biacore chip (about 50 RU); not shown: His tag
T1 sequence (looked up): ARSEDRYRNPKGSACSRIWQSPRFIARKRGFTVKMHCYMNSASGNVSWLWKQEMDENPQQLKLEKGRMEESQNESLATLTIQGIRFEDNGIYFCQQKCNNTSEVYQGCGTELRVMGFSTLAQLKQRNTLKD
Description: (§1) The binding kinetics of exemplary anti-CD79b/CD3 antibodies of the present invention for human CD79b, human CD3, and cynomolgus monkey CD3 were determined using surface plasmon resonance (Biacore T200). (1) Affinity assay of antibodies for human CD79b-his (Sino biological): 50 mM N-hydroxysuccinimide (NHS) and 200 mM 1-ethyl-3-(3-dimethylaminopropyl) carbodiimide hydrochloride (EDC) were freshly mixed and activated for 420 s at a flow rate of 10 μL/min. Human CD79b-His antigen was then diluted in 10 mM Acetate (pH 5.0), and after dilution to a concentration of 1 μg/mL, the antigen solution was subjected to coupling and the value was approximately 50 RU. Then 1 M ethanolamine was injected at a flow rate of 10 μL/min for 420 s to block the remaining activation sites. The buffer used in the experiment was HBS-EP+ solution at pH 7.4, and under a high performance mode, the antibodies obtained after 2-fold gradient dilution (0-80 nM) were each injected, according to an ascending order based on concentrations, into the channels 1, 2, 3 and 4 of the chip at a flow rate of 30 μL/min, wherein one cycle was used for determination of one concentration, the binding time was 180 s, and the dissociation time was 600 s. (2) Affinity assay of antibodies for human CD3E & CD3G-biotin (Sino biological) and monkey CD3E & CD3G-biotin (Sino biological): 50 mM NHS and 200 mM EDC were freshly mixed and activated for 420 s at a flow rate of 10 μL/min. Streptavidin (Thermo Fisher scientific) protein was then diluted in 10 mM Acetate (pH 4.5) and after dilution to a concentration of 10 μg/mL, the antigen solution was subjected to coupling and the value was approximately 3000 RU. Then 1 M ethanolamine was injected at a flow rate of 10 μL/min for 420 s to block the remaining activation sites. Human CD3E & CD3G-biotin and monkey CD3E & CD3G-biotin proteins were each immobilized on the chip channels coupled with Streptavidin protein. The antibodies (0-16 nM or 0-40 nM or 0-200 nM) obtained after 2-fold gradient dilution were each injected, according to an ascending order based on concentrations, into the channels 1, 2, 3 and 4 of the chip at a flow rate of 30 μL/min, wherein one cycle was used for determination of one concentration, the binding time was 180 s, and the dissociation time was 300 s.

[2] = target: T2, CD79b on the surface of B-cell non-Hodgkin's lymphoma cells (human, UniProt P40259 29-229); test: flow cytometry on WSU-DLCL2 cells, goat anti-human IgG PE
T2 construct: whole, on cells; Endogenous CD79b of the cell lines; on cells it stands in the B cell receptor complex with CD79a; also called CD79b on Ramos cells; CD79b on BJAB cells
T2 sequence (looked up): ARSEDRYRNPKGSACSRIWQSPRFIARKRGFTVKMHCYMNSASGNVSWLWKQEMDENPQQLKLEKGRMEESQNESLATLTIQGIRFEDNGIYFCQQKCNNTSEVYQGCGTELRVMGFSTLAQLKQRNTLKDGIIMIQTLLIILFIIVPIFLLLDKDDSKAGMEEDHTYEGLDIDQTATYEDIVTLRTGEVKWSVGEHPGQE
Description: (§2) The binding ability of the CD79b/CD3 bispecific antibodies for CD79b-positive B-cell non-Hodgkin's lymphoma cell lines was detected by flow cytometry.
(§3) BJAB (AddexBio, USA, Cat #C0003016) and WSU-DLCL2 (Nanjing Kebai Biotechnology Co., Ltd., Cat #CBP60273) were cultured and passaged according to the conventional procedures. Cells were counted after centrifugation and resuspension, adjusted to a density of 4×10⁶ cells/mL, poured into a loading tank, and seeded to a 96-well plate at 50 μL/well using a multichannel pipettor. 50 μL of the antibody sample diluted in gradient was added to the 50 μL of cells in each well, and the mixture was then incubated in an incubator at 5% CO₂ and 37° C. for 30 min. The mixture was centrifuged at 400 g for 5 min, then 200 μL of PBS was added, and the resulting mixture was centrifuged at 400 g for 5 min. This procedure was repeated 3 times. Goat anti-human IgG PE (1:200) was added, and the mixture was incubated for 30 min in the dark at room temperature. The mixture was washed with 200 μL of PBS twice, centrifuged, and then resuspended in 100 μL of PBS, and the values were read using a flow cytometer. The values were fitted to obtain a curve and EC₅₀ values were calculated.

[3] = target: T3, human CD3E & CD3G-biotin (Sino biological) (human, UniProt P07766 23-126; P09693 23-116, limits assumed); test: SPR (Biacore T200), biotinylated CD3E&CD3G on streptavidin chip, antibody injected
T3 construct: also called Human CD3E&G
T3 sequence (P07766 23-126 limits assumed, chain 1 of 2): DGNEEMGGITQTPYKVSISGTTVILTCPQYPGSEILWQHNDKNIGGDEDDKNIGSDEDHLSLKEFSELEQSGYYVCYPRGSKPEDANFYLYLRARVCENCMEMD
T3 sequence (P09693 23-116 limits assumed, chain 2 of 2): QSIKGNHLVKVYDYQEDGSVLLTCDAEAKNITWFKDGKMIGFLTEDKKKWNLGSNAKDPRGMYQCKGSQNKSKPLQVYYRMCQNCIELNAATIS
Description: as §1

[4] = target: T2, CD79b on the surface of B-cell …; test: flow cytometry on BJAB cells, goat anti-human IgG PE
Description: as §2, §3

[5] = target: T4, monkey CD3E & CD3G-biotin (Sino biological) (cynomolgus monkey, UniProt Q95LI5 22-117; Q95LI7 23-113, limits assumed); test: SPR (Biacore T200), biotinylated monkey CD3E&CD3G on streptavidin chip, antibody injected
T4 construct: also called Cyno CD3E&G; monkey CD3E&G
T4 sequence (looked up) 1: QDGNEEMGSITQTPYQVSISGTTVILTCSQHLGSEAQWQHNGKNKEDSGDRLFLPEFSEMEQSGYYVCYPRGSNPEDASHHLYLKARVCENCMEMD
T4 sequence (looked up) 2: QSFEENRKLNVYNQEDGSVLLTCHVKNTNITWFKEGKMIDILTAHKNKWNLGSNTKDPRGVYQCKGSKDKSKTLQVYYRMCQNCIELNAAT
Description: as §1

[6] = target: T5, human CD79b (recombinant antigen in the ForteBio assays) (human, UniProt P40259 29-159); test: BLI (ForteBio), antibody loaded on sensor, antigen in solution
T5 construct: the immunogen was CD79b protein from Sino, Cat #29750-H08H; also called huCD79b
T5 sequence (looked up): T1 sequence (looked up)
Description: (§4) Briefly, an AMQ (Pall, 1506091) sensor was equilibrated offline in an assay buffer for 30 min and then equilibrated online for 60 s to establish a baseline. The purified antibodies obtained as described above were each loaded online onto an AHQ sensor (ForteBio) for the ForteBio affinity assay. The sensor with the loaded antibody was then exposed to antigen CD79b before transferring the sensor to the assay buffer to measure the dissociation rate. The KD values were analyzed using ForteBio analysis software.
The equilibrium dissociation constants (KD) for the binding of the humanized antibodies of the present invention to human CD79b were determined by ForteBio.

[7] = target: T2, CD79b on the surface of B-cell …; test: flow cytometry on Ramos cells, goat anti-human IgG PE
Description: as §3, with “Ramos (ATCC, Cat #CRL-1596) and BJAB” for “BJAB”, “#C0003016)” for “#C0003016) and WSU-DLCL2 (Nanjing Kebai Biotechnology Co., Ltd., Cat #CBP60273)”, “were” for “were cultured and”
(§5) The binding of the humanized antibodies to Ramos and BJAB cells was detected by flow cytometry. The assay was the same as in Example 4. The binding of the humanized antibodies to CD79b on the surface of Ramos cells is shown in FIG. 3; the binding of the humanized antibodies to CD79b on the surface of BJAB cells is shown in FIG. 4.

[8] = target: T2, CD79b on the surface of B-cell …; test: flow cytometry on BJAB cells, goat anti-human IgG PE; remark: listed apart in the source
Description: as §3, with “Ramos (ATCC, Cat #CRL-1596) and BJAB” for “BJAB”, “#C0003016)” for “#C0003016) and WSU-DLCL2 (Nanjing Kebai Biotechnology Co., Ltd., Cat #CBP60273)”, “were” for “were cultured and”
as §5

[9] = target: T5, human CD79b (recombinant antigen in the …); test: BLI (ForteBio), antibody loaded on sensor, antigen in solution; remark: listed apart in the source
Description: The equilibrium dissociation constants (KD) for binding of the antibodies of the present invention to CD79b were determined by bio-layer interferometry (ForteBio). A ForteBio affinity assay of prior art was performed (Estep, P., et al., “High throughput solution Based measurement of antibody-antigen affinity and epitope binning”, MAbs, 2013.5 (2): 270-8).
as §4

[10] = target: T5, human CD79b (recombinant antigen in the …); test: BLI (ForteBio)

B1: CD79b.A7v14b/38E4v1 (bispecific antibody, human IgG1, kappa, L234A L235A)
heavy 1: not shown
light 1: DIVMTQTPLSLPVTPGQPASISCKSSQSLLDSDGKTYLNWLLQKPGQSPQSLIYLVSKLDSGVPDRFSGSGSGTDFTLKISRVEAEDVGVYYCWQGTHFPQTFGQGTKVEIKRTVAAPSVFIFPPSDEQLKSGTASVVCLLNNFYPREAKVQWKVDNALQSGNSQESVTEQDSKDSTYSLSSTLTLSKADYEKHKVYACEVTHQGLSSPVTKSFNRGEC
heavy 2: not shown
light 2: not shown
notes: also called CD79b.A7v14b x 38E4v1
Kd [1]: 8.66 nM | koff [1]: 0.00701 s⁻¹ | kon [1]: 809000 M⁻¹ s⁻¹ | EC50 (read off the curve) [2]: ~20 nM | Kd [3]: 1 nM | koff [3]: 0.00296 s⁻¹ | kon [3]: 2.96e+06 M⁻¹ s⁻¹ | EC50 (read off the curve) [4]: ~10 nM | Kd [5]: 1.52 nM | koff [5]: 0.00285 s⁻¹ | kon [5]: 1.88e+06 M⁻¹ s⁻¹

B2: hz34F1.14 (antibody, V domains shown)
VH: QVQLVQSGAEVKKPGASVKVSCKASGYSFTTYWMNWVRQAPGQGLTWMGMIDPSDSETHYNHLFKDRVTMTVDKSTSTAYMELSSLRSEDTAVYYCTRAIGYWGQGTLVTVSS
VL: DVVMTQSPLSLPVTLGQPASISCKSSLSLLDSEGKTYLNWFQQRPGQSPRPLISLVSKLDSGVPDRFSGSGSGTDFTLKISRVEAEDVGVYYCWQGTHFPLTFGGGTKVEIK
Kd [6]: 2.53 nM | EC50 (read off the curve) [7]: ~20 nM | EC50 (read off the curve) [8]: ~10 nM

B3: hz11G10.9.p1 (antibody, V domains shown)
VH: QVQLVQSGAEVKKPGASVKVSCKASGYTFTDYWVNWVRQAPGQGLEWMGMIDPSDSETHYNQMFNDRVTMTVDTSTSTVYMELSSLRSEDTAVYYCTRSNYYWGQGTLVTVSS
VL: DIVMTQTPLSLSVTPGQPASISCKSSQSLLDSEGKTYLNWLLQKPGQSPQSLIYLVSKLDSGVPDRFSGSGSGTDFTLKISRVEAEDVGVYYCWQGTHFPLTFGGGTKVEIK
notes: Humanized monospecific anti-CD79b antibody; also called 11G10.9.01
Kd [6]: 1.35 nM | EC50 (read off the curve) [7]: ~5 nM | EC50 (read off the curve) [8]: ~4 nM

B4: A7v14b (antibody, V domains shown)
VH: EVQLVQSGAEVKKPGASVKVSCKASGYTFTTYYMNWVRQAPGQGLEWIGMIDPSDSETHYNQKFQGRATLTVDTSTSTAYLELSSLRSEDTAVYYCSRSLAFWGQGTLVTVSS
VL: B3 VL with S12P, E33D, L101Q, G105Q
notes: also called CD79b.A7v14b
Kd [6]: 1.84 nM | Kd [9]: 1.84 nM | EC50 (read off the curve) [7]: ~4 nM | EC50 (read off the curve) [8]: ~3 nM

B5: hz38D9B3.11 (antibody, V domains shown)
VH: QVQLVQSGSELKKPGASVKVSCKASGYTFTDYSMHWVRQAPGQGLEWMGWINTETGEPSYADDFKGRFVFSLDTSVSTAYLQISSLKAEDTAVYYCYYGPYWGQGTLVTVSS
VL: EIVLTQSPATLSLSPGERATLSCKASQSVDHDVDSYMDWYQQKPGQAPRLLIYSASNLESGIPARFSGSGSGTDFTLTISSLEPEDFAVYYCQQINEYPYTFGGGTKVEIK
notes: Humanized monospecific anti-CD79b antibody
Kd [6]: 0.274 nM | EC50 (read off the curve) [7]: ~2 nM | EC50 (read off the curve) [8]: ~2 nM

B6: polmab (antibody, human IgG1, kappa, V domains shown)
VH: EVQLVESGGGLVQPGGSLRLSCAASGYTFSSYWIEWVRQAPGKGLEWIGEILPGGGDTNYNEIFKGRATFSADTSKNTAYLQMNSLRAEDTAVYYCTRRVPIRLDYWGQGTLVTVSS
VL: DIQLTQSPSSLSASVGDRVTITCKASQSVDYEGDSFLNWYQQKPGKAPKLLIYAASNLESGVPSRFSGSGSGTDFTLTISSLQPEDFATYYCQQSNEDPLTFGQGTKVEIKR
Kd [10]: 13.7 nM | Kd [6]: 12.7 nM | Kd [9]: 12.7 nM | EC50 (read off the curve) [7]: ~3 nM | EC50 (read off the curve) [8]: ~2 nM
